Source: article PMC8965080 (Frontiers in Microbiology, 2022)

What was measured:
[1] = molecular target: Fdh3A, formate dehydrogenase large (catalytic) subunit (TON_0539) of Thermococcus onnurineus NA1, with N-terminal 6X-His tag (Thermococcus onnurineus NA1); experiment: affinity purification with mass spectrometry; lysate of strain MF01 on TALON IMAC resin (N-terminal 6X-His on Fdh3A), eluted with 300 mM imidazole, then SEC on Superose 6 Increase 10/300 in buffer A (0.1 M Tris-HCl pH 8.0, 150 mM NaCl, 19 mM KCl, 10% glycerol); bands of the SDS-PAGE identified by MALDI mass spectrometry; anaerobic chamber
Fdh3A = molecular target: T1, Fdh3A (Thermococcus onnurineus, UniProt B6YU84); experiment: formate-dependent methyl viologen reduction, absorbance at […] nm; format: biochemical; conditions: 100 mM sodium formate, 2 mM methyl viologen, 0.1 M Tris-HCl pH 8.5, 10% glycerol, 2 mM DTT; anaerobic; turnover only
T1 construct: gene TON_0539; Catalytic subunit alone; N-terminal 6xHis tag; expressed in T. onnurineus MF02 (parent 156T, fdh3 region deleted); one-step TALON IMAC
T1 sequence (B6YU84 1-680): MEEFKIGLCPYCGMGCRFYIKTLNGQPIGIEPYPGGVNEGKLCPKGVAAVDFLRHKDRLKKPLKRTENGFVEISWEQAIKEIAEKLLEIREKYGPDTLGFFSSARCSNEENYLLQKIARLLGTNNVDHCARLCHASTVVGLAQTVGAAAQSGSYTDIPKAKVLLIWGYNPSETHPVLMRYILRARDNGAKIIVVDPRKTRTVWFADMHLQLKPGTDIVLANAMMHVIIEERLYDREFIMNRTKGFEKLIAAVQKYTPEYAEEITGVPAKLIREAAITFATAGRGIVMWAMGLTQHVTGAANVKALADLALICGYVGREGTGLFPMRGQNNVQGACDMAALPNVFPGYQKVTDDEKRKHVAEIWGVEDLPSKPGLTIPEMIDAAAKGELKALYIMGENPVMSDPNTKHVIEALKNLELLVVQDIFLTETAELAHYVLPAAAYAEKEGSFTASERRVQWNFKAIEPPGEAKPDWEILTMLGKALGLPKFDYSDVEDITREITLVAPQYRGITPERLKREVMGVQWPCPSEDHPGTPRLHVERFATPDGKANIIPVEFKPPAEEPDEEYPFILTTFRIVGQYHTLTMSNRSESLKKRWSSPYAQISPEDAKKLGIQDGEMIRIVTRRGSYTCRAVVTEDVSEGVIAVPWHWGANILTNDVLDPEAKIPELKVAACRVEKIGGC

[2] = molecular target: Fdh3A, formate dehydrogenase large (catalytic) subunit (TON_0539) of Thermococcus onnurineus NA1, with N-terminal 6X-His tag (Thermococcus onnurineus NA1)
purified protein [3] = substrate: O=CO; experiment: purified protein; conditions: NADP+ as electron acceptor (2 mM in the standard assay), 0.1 M Tris-HCl pH 8.5, 10% glycerol, 2 mM DTT, anaerobic, optimum 80 °C (temperature of Km assay not stated), catalytic site on Fdh3A (TON_0539)
purified protein [4] = substrate: NC(=O)c1ccc[n+]([C@@H]2O[C@H](COP(=O)(O)OP(=O)(O)OC[C@H]3O[C@@H](n4cnc5c(N)ncnc54)[C@H](OP(=O)(O)O)[C@@H]3O)[C@@H](O)[C@H]2O)c1; experiment: purified protein; format: biochemical, Thermococcus onnurineus; conditions: co-substrate formate (100 mM in the standard assay), 0.1 M Tris-HCl pH 8.5, 10% glycerol, 2 mM DTT, anaerobic, optimum 80 °C (temperature of Km assay not stated), site on Fdh3B (TON_0542) by model

Question: How did the stoichiometry N [1] turn out when “Fdh3B, NAD(P)-binding protein (TON_0542) of Thermococcus onnurineus NA1 (natural protein)” was run?
Answer: 1

Question: With `O=CO` [formate] as the molecule, how does the “formate-dependent methyl viologen reduction, absorbance at 578 nm” value (Fdh3A) read?
Answer: The specific activities of formate-dependent methyl viologen reduction of Fdh3 and Fdh3A were similar

Question: Which “formate-dependent methyl viologen reduction, absorbance at 578 nm” value (Fdh3A) does the source give for `C[n+]1ccc(-c2cc[n+](C)cc2)cc1` [methyl viologen] here?
Answer: The specific activities of formate-dependent methyl viologen reduction of Fdh3 and Fdh3A were similar

Question: What does the source list for “ferredoxin Fd0317 (TON_0317) of Thermococcus onnurineus NA1 (from UniProt B6YTB5 1-67) (natural protein)”?
Answer: formate-dependent ferredoxin-reducing activity of Fdh3A alone (purified from strain MF02), based on the same methyl viologen activity [2]: 16.8 mU/U; formate-dependent ferredoxin-reducing activity of the purified Fdh3 complex (Fdh3A with Fdh3B, Fdh3G1 and Fdh3G2), based on the same methyl viologen activity [2]: 17.9 mU/U

B1: Fdh3 (Thermococcus onnurineus NA1) (protein)
chain 1: MEEFKIGLCPYCGMGCRFYIKTLNGQPIGIEPYPGGVNEGKLCPKGVAAVDFLRHKDRLKKPLKRTENGFVEISWEQAIKEIAEKLLEIREKYGPDTLGFFSSARCSNEENYLLQKIARLLGTNNVDHCARLCHASTVVGLAQTVGAAAQSGSYTDIPKAKVLLIWGYNPSETHPVLMRYILRARDNGAKIIVVDPRKTRTVWFADMHLQLKPGTDIVLANAMMHVIIEERLYDREFIMNRTKGFEKLIAAVQKYTPEYAEEITGVPAKLIREAAITFATAGRGIVMWAMGLTQHVTGAANVKALADLALICGYVGREGTGLFPMRGQNNVQGACDMAALPNVFPGYQKVTDDEKRKHVAEIWGVEDLPSKPGLTIPEMIDAAAKGELKALYIMGENPVMSDPNTKHVIEALKNLELLVVQDIFLTETAELAHYVLPAAAYAEKEGSFTASERRVQWNFKAIEPPGEAKPDWEILTMLGKALGLPKFDYSDVEDITREITLVAPQYRGITPERLKREVMGVQWPCPSEDHPGTPRLHVERFATPDGKANIIPVEFKPPAEEPDEEYPFILTTFRIVGQYHTLTMSNRSESLKKRWSSPYAQISPEDAKKLGIQDGEMIRIVTRRGSYTCRAVVTEDVSEGVIAVPWHWGANILTNDVLDPEAKIPELKVAACRVEKIGGC
chain 2: MSGMRFAFLCRERPEPTGKKIAVIGAGPAGLAATGYLVCQGHEVHVYDKLPEPGGLMLFGIPEFRIPIYRVREGYEELERVYNVKFFTRTKVYFGNLEGESGDEFVENRVDFKELVEKYDAVLIATGTWKCWIPNIEGAELEGVFPALEYLFRIKSAKLGHMDWGKVTPVEGKKVLVVGAGHTAVDAALESVLLGADKVYLSYRRTIREAPAGAYEINLLQQRGVKWLERTMPVRIIGENGKVRAVELVKTKLSEPDESGRRRPVPIEGSNFQIDVDYVIFAVGQSPTPPFAEEIDIAVDKKGRIVVDNRHMTSREGVFAAGDVVLGPSKVGKAVKDGLYAAEAMHMWLMGR
notes: Tungsten-containing cytoplasmic complex; N-terminal 6xHis tag on TON_0539; overexpressed in T. onnurineus MF01 (fdh1 fdh2 fdh3 deleted), TALON IMAC and SEC; 524 kDa by SEC; TON_0541 not detected
Question: Which results are given for B1?
Answer: Km (purified protein [3]): 13.5 mM; Km (purified protein [4]): 0.040 mM
